This data set can be described thus: label from the status in PepcDB records.

From a protein production outcome set (Wang et al. 2014) come the findings set out here.
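Also: failed if final PepcDB status was selected cloned or expressed and not failed if soluble or beyond.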

For the sequence “MHQSVIDPQGLIDLKILIVIALCLLFSPHIAKILRLPLSATEIILGAIIAYFGFIGKSENFALLANVGFYYLMFIAGMEVNLRAFFNMDKEIAKKSFFYIFLLYALSSLIVWIFGLSLVFVIIIPVMSVGLLSLLFKDFGKECYWLNIAMIVATLAEVISIVLLTIAGAFLREGTGIIDVAQSILYLNIFLGLCLLGFKMLGVLFWWYPQLKVVLMPWEDKNEKDIRFCMAIFILIIVAMVITKLEIVLGSFIAGSFIATFFDHKKDLEHKLSTFGHGFLIPIFFIHIGSTFDLKMILDYKIVLQAFLLMFVMVGLRILCASVFLKRIGFKNMILFGLSHSMPLTLLIATATLGYSGKVIDEKLYSALILTALFEAIIVMSMIKFLSNSKK”, the protein production result is “failed”.

On to “MHREQAPEHRDRTSEHRDRTPERRDRTPEPPGRASGPAAPAPASEPPGTDLGWLLEDLVARTDHVRQAVLLTADGLPLSASDGMRARDIEHLAAVCSGFHSLARSAGERFAAGDVRQTMVMLDDAYLFITPAGDGSRLAVLSEVQTDVGQLAHEMALLVRRVGRHMDAAVRSAVHSAGS”, for which the protein production entry is given as “failed”.

On to “MHRKPICAALAIISAATLTTSLAYGMTAVELPAGAPADKPVGKLEQVQAFYDAMPTGVTVTETGRIFVNFPRWGDKVPFTVGEVRDGKVVAYPDLAVNHENPKDPGDGLISVQSVVADGKGRVWLLDTAAPEFAAPRPQGAKLVAVDLATNKIVKRLVFPDNVILPSTYVNDMRFDFRQGSQGTVYVTDSSVSGPGAIIVMDIASGHAVRRLSGAKATSADPAFVPVVEGVPVLGDGPDGTRKPVHVAADGIALSADGKTLYFSPLSSRHLYSVATELLNDSAVNEQQLAAAVQDLGEKGASDGLEADADGAVYAGDYEHNAIRKRLPNGVWQTVAHDPRMLWPDTLSIGPDGYLYFIVNQLHRQAGFNSGHDQRKKPYSLLRVKVATAPAPTH”, for which the protein production result is “failed”.

As to “MHWTIIGGGIQGTAIAQKLLSSGLTTDLLTIIDPHETFCQRFNSYTNRIEMPYLRSPIVHHVHPQPFHLKQFAKQHQYTNAFYGPYQRPELTMFMNHIAHASKQYQLEDCLVQGLVQTLDKQEDKWHIKLEDGQIITTDCVVIAIGSTNIPFMPDILKDKQNVNHIFEKEHDQVVYDKTDHIVGSGITAAHLALKLLNHDNDKKI”, the protein production entry is listed as “failed”.

In the case of “MHYDVIVIGGGPSGLMAAIGAAEEGANVLLLDKGNKLGRKLAISGGGRCNVTNRLPLDEIVKHIPGNGRFLYSAFSIFNNEDIITFFENLGVKLKEEDPGRMFPVSNKAQSVVDALLTRLKDLGVKIRTNTPVETIEYENGQTKAVILQTGEVLETNHVVIAVGGKSVPQTGSTGDGYAWAEKAGHTITELFPTEVPILSNEPFIRDRSLQGLALRDINLSVLNPKGKAIISHKMDMLFTHFGLSGPAALRCSQFVVKALKKFKTNTIQMSIDALPEENSEQLFQRMLKQMKEDPKKGIKNVLKGYVPERYFLFLLEKNEIDGSEQAGQVSHEKIRALVKDFKEFTVNVNGTQSIEKAFVTGGGVSVKEINPKEMSSKFTNGLYFCGEVLDIHGYTGGYNITSALVTGRIAGTTAGENAKMQY”, the protein production entry is listed as “not failed”.

Consider “MHYHGSCHCGTIRFDVEGELTGAMSCNCSICRRKGALLWFVPRDHLRLATPDEQIATYTFNRHLIKHRFCPTCGIHTHGEGVDQQGRAMAAINIRCLDDVDLDAVAVHQYDGRAA”, for which the protein production entry is “failed”.

“MIARIPKDIPDLPAIPGMPVLMPSAVPAAAVVAPTRRPLTTAFRLLVALAATAGVTIDLILGSPLRVLTYFTIQSSVLVALTFTLSAWRAWAARRPLPALLTGGTLLYAVITGLVYHLLLAHEPAPFTMTGQAGPLTGWQALTNQLLHTAVPVAVVLDWLLLTGSGRLRLRQASAWLLYPLAYLALTLARGELILPGTPGRYLYPFLDVEQHGYKSVLGNALLLGLAFYALAVLLVTLDRVRPNPLRRRAKNGFRLQPPVG”: the protein production result is on record as “failed”.

For the sequence “MICYKCGQDAGWNDKCPVCGADLSLFKRAIRISNSYYNDGLQKAQVRNLSGAIISLRQSLKFYKYNIQARNLLGLIYYEMGEMVDALSEWVISANYQPDDNLAKKYIDQIHNNRNQLETINQTIKKYNQALTYCKQDSKDLAVIQLRKVLSLNPKLVKGHQLLALLYLEEGHLDKAKKALRDAGKIDTDNTTTLRYLKEVNRRLKEKGTERKKKNDDLISYQSGNETIIMPKRFRESSMWANILYIIIGLVVGVAVTCFLVVPGIKSQAKTDAKKQLLSANDTISTNGQTISGLNDQIDKLKKELEDEKKKNDGVSDQISTYEALLNAYVYYTTNDVIKAGEALENINTSYLSDSAKQTYDTLNGSIADSYKEALYSQAYSSYSSGDYQSAIPTFQKLVGMDEAYRDGSAAYYLAQSFRKSGDLASAKPYYQYVVDNYAGTEKARTSKNYLAQEQQ”, the protein production entry is “failed”.

For “MIDFNVDSARCTRCGQCVADCPSRIIVMATGEYPSIAPGKEFSCLRCEHCLAVCPEAAISILGFSPDGSTPLKGNLPETDQLETLIAGRRSVRRYCPENLSPELIDKLITVASCAPTGVNARKVRFTVLDDREKTAHFRDEVMERLVRLLEEEALPESKAYYARFVKVWQKHKIDLVFRDAPHLLIATAPKSLSTPRQDCVIALTTFELYAQACGIGTLWNGIATWAIEEMLPEMRQRLGIPDDHAFGYAMLFGKPAVRYARTVQHHPPEIYRVPLEHHHHHH”, the protein production result is “not failed”.

Regarding “MIDIHCHILPEIDDGPSSLEESLVMAREAVKEGITKIIATPHHLHPSYNNKAAVVKEKVRKLNEAIQKENIPLEILPGQEVRISGDVMDGLVSGDILTLADQGKYLFVEFSSNHVSRYADKLFFQLLSQDIIPIIVHPERNHEFLKNPGLLYDLVNGGALTQITTSSLTGHLGKKIKKFTEQIIEADLTHFLASDAHNVTERTFRIREAFALVEKNYGSSKAYEFQENAELLVENQHVMGPPPQPIVKKKLLGIF”, the protein production result was “failed”.

“MIDIKVDPRLKSQRFRQEREADWRRLERLIGKVEKGSIADLSDEDLLAAPVLYRSALSALSVARATSLDRALIAYLETLCARAYFFVYGSRETLWGQLKGFFAGDWPAAVRGLWRETLVSAALMALGVMIAAWLVGHDPDWFYAFVPRELAGGRDPAATTEALAATLGGKDASGLTVFATFLFTHNAQVALLAFALGFALCVPTAGLVLYNGAMLGAFLALFASRGLGIELGGWLLIHGVTELFAVILAGAAGLRIGWAAAFPGERRRLDALAEAGRHAATVMGGVVVMLFLAGLLEGFGRQLITDTAARYGVAAATALMWGLYFYGPRRHG”: the protein production result is recorded as “failed”.

In the case of “MIDLDFRKLTIEECLKLSEEEREKLPQLSLETIKRLDPHVKAFISVRENVSVEKKGKFWGIPVAIKDNILTLGMRTTCASRILENYESVFDATVVKKMKEAGFVVVGKANLDEFAMGSSTERSAFFPTRNPWDLERVPGGSSGGSAAAVSAGMVVAALGSDTGGSVRQPASLCGVVGYKPTYGLVSRYGLVAFASSLDQIGPITKTVRDAAILMEIISGRDENDATTVNRKVDFLSEIEEGVSGMKFAVPEEIYEHDIEEGVSERFEEALKLLERLGAKVERVKIPHIKYSVATYYVIAPAEASSNLARFDGVKYGLRIKEKGLREMYMKTRNVGFGEEVRRRIMIGTFTLSAAYYEAYFNKAMKVRRKISDELNEVLSQYDAILTPTSPVTAFKIGEIKDPLTYYLMDIFTIPANLAGLPAISVPFGFSNNLPVGVQVIGRRFADGKVFRIARAIEKNSPYNENGMFPLPEVKA”, the protein production entry was “not failed”.

For the sequence “MIDPREPIVTPVPVEELRPTQITVGMREVALKRQMIREQDAKKKTGAFLGKHMVPVVLGPKNRNYVTDHHHLARALLEEGVKDVLVTVISDLSALDKDTFLFVLDNRGWMHPFDESGRRRDYSAIPKTIGELIDDPYRSMAGELRRMGGFAKDTTPFSEFIWADFLRRRIDRNAVAKNFDKAMKEALSLAKGKDADYLPGWCGPTSDLEHHHHHH”, the protein production entry is “not failed”.

On to “MIDVKSIILIVLDGLGDRPGEILGYRTPLQAAYHPNMNRMASLGMTGLMHPISPGIRSGSDTSHMSLLGYDPRVYYQGRGPFEALGLHMDMKPGDLAFRANFATNRDGKIIDRRAGRINAGNDQLASAISIDIGNYKFRVKSGVEHRAALVVSGPNLSDKISDSDPHSEGKPPEPIRPLDPSADSTAKIMNEYLKRIREILRDHPVNVEREKNGQIPGNELLIRSAGKVPDIPSFQEKNGITGACVVGSPWLKGLCRLLGMAVIDVPGAAGTINSNYTGKIKTAIDASKRYDFVLVNIKATDVAGHDGDYELKRRVIEDIDIAMEPLLGQSDRIVVAITGDHSTPCSVKDHSGDPVPIVFYTDGIYSDDVKLFDEVSAMKGALRITTQDVLNILMEMAGRAEKFGS”, for which the protein production result is given as “not failed”.

In the case of “MIEAYKDYWKRYIDFKGKSNRLEFWTPVLVHIISIFIIALIGAFSFIVGIFIVAAVLSALIGLFGLANIVPMAAVTLRRFYDAGRKRTTAIILIILSVVVNIVFDIIQVDSIAVFLNIVSIICTIILVIETLLPSKNVEDAQLKWL”, the protein production entry is listed as “failed”.

For “MIEDKFMRVLLMFDVPTKSKKEQKLASKFRNNLIKLGYFMLQFSVYMRICKGLSSAKSSIENVKKILPPYGNVRALIITEKQFDKMELLLGGIVFNEKVNNETNLTLFDIDSHGEFKYKNSNNEEIQINKKQEKYHQQNLFEFLEHHHHHH”, the protein production result is listed as “failed”.

Turning to “MIEDTLHAIAQQDYPAESYEVLLINDGSKDNTLEIAENLAKIYPCIKIVNVPKGMGGKGKSRTLNNGLPHAKGELIVVYDADSTPEPDCVRLLAQTLLADKKLVAVNGKVRTRNWQDSILTRFIAIEFIFFQWIFQGGRWQRFELSTLMGTNYVIWRDALETLGGFDEKSLVDDTEMSFRIFIGQKRIKWVPYAIGWQQDPPSLSVFVKQRSRWTQGNFYVTRKYLPVALRTPFPIGIEILNNIMCYILFVPALFWSHITLTLGLLDIAGISVPGPFTLLWGLSFCLYVAQMWFTLSLEKVKPELYFYSVLSYVSYSQIFLFIVFKAAFDMLKNKIQGNSLQWYKTERSKEKK”, the protein production result is “failed”.

On to “MIEEQGRVVATEPGAVWVETVRRSTCSSCSANAGCGQGLMQRLGVGAGRARVRALSDLSLRVGDAVVLGIHEDLLLRASVLFYLFPLLGFFVAALLATRAGLVEPLIIVSGLAGLLAAWLLVRRHARRHADDPASQPVVLRALISGPSDSA”, for which the protein production entry is reported as “failed”.

With “MIEKVYCQEVKPELDGKKVRLAGWVYTNMRVGKKIFLWIRDSTGIVQAVVAKNVVGEETFEKAKKLGRESSVIVEGIVKADERAPGGAEVHVEKLEVIQAVSEFPIPENPEQASPELLLDYRHLHIRTPKASAIMKVKETLIMAAREWLLKDGWHEVFPPILVTGAVEGGATLFKLKYFDKYAYLSQSAQLYLEAAIFGLEKVWSLTPSFRAEKSRTRRHLTEFWHLELEAAWMDLWDIMKVEEELVSYMVQRTLELRKKEIEMFRDDLTTLKNTEPPFPRISYDEAIDILQSKGVNVEWGDDLGADEERVLTEEFDRPFFVYGYPKHIKAFYMKEDPNDPRKVLASDMLAPEGYGEIIGGSQREDDYDKLLNRILEEGMDPKDYEWYLDLRRYGSVPHSGFGLGVERLVAWVLKLDHIRWAALFPRTPARLYP”, the protein production entry was “not failed”.

Take “MIENTIYKEFIDKISELSDGIYPIITDLDNDLSYVPDKTADFFGFEAGEHTCFFEQLSSCVNDVDLPEYKREIRYRLNGEKPDDIFYVRMGKHTKEYMMGFYSDIFTGDDGHRYHVLVLRNENTLPDIDPYTYLYGQSKFERDINGYIMENRSVAIIEVEIGHIDEFNILYGSNFNTAIQRELALKFIYMMDGSTATYYMNNCKFVFVVKEADRALAESFYQKIADTIKSMYFFKCFKFEFDIYAACLILKDYDGDTSTVISKVEYTLDRAKELHSSDLLFFNDMVRFNGSSHIDIMKIIHQSVINSCDGFFVEFQPIVKACNGEIMGAEALVRWKKEPFGTVPPGLFIDWLEDTPAMYELGNYIMRTAISAASEFAKIKPGFFINVNASSEQLEKENFVKDTLAILKEYDFPPSQLWIEITERCRDLPISMIKKTVTAFREAGIHITMDDYGTGSSSSQMMLELPVEGIKIDMFFVKDILEEKKKQALVIGMINFANAADLKICIEGIENDNLESYLRQFDVTWFQGYHYSRSICQDELMKLLIKP”: the protein production result was “failed”.
